Our source for the stain index, fold over a Pacific Blue control conjugate of the same antibody and MFI/zero (fluorescence highest point in standard curve/fluorescence zero concentration of analyte) values is patent US8575303.

Experiment [1] deals with unlabeled anti-CD4 (RPA-T4 clone, BD Biosciences) raised in mouse against the human antigen. The experiment can be described thus: flow cytometry on Cyto-trol cells pre-labeled with mouse anti-CD4 primary (Example 36, FIG. 20B). A general note: In flow cytometry, cells or beads pass a laser one at a time.
The target in experiment [2] is Mouse IgG. Description: Luminex xMap bead sandwich assay, mouse IgG titration, detection with streptavidin-conjugated polymer.
For experiment [3], the target named is Mouse IgG. The experiment can be described thus: Luminex xMap bead sandwich assay, mouse IgG titration, detection with streptavidin-phycoerythrin at 4 ug/mL.

Some results are limits rather than exact numbers.

With “405 polymer-goat anti-mouse conjugate (amine-functionalized 405 polymer conjugated to goat anti-mouse IgG purified antibody)”, the stain index, fold over a Pacific Blue control conjugate of the same antibody in experiment [1] is over 4 fold. As to “Donkey anti-mouse IgG antibody covalently conjugated to xMap beads”, the MFI/zero (fluorescence highest point in standard curve/fluorescence zero concentration of analyte) is 26.6 with Mouse IgG [2] and 21.8 in the experiment with Mouse IgG [3].
